From the supplement of paper PMC10724198
± gives the standard deviation of the averaged measurements.

Experiments:
Saccharomyces cerevisiae [1] = test: protein stability index of tFT-peptide fusion (C-terminal peptide) (PSI (0-1 scale)); higher = more stable (slower turnover); conditions: genetic background: wild type; temperature: 30 C
Saccharomyces cerevisiae [2] = test: as above
Experimental: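 MPS profiling in S. cerevisiae of the tFT-X12 degron library: putative degron peptides plus stable controls, 12 aa, fused to the C-terminus of a sfGFP-mCherry timer. Cells are FACS-sorted into 8 mCherry/sfGFP bins and deep-sequenced. PSI runs from 0 (unstable) to 1 (stable). Backgrounds are wild type, das1Δ and doa10Δ at 30 °C, and wild type, das1Δ, cdc34-1 and cdc53-1 at 37 °C; 2-3 technical replicates each.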

[3] = genetic background: cdc34-1, temperature: 37 C
[4] = genetic background: cdc53-1, temperature: 37 C
[5] = genetic background: das1 deletion, temperature: 30 C
[6] = genetic background: das1 deletion, temperature: 37 C
[7] = genetic background: doa10 deletion, temperature: 30 C
[8] = genetic background: wild type, temperature: 30 C
[9] = genetic background: wild type, temperature: 37 C
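Also: PSI is a weighted mean of sequencing reads over stability bins, variants kept only with over 10 reads, mCherry proximal and sfGFP distal, peptide attached via GGGS linker.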

Sequence	protein stability index (Saccharomyces cerevisiae [1])	protein stability index (Saccharomyces cerevisiae [2]; [3])	protein stability index (Saccharomyces cerevisiae [2]; [4])	protein stability index (Saccharomyces cerevisiae [2]; [5])	protein stability index (Saccharomyces cerevisiae [2]; [6])	protein stability index (Saccharomyces cerevisiae [2]; [7])	protein stability index (Saccharomyces cerevisiae [2]; [8])	protein stability index (Saccharomyces cerevisiae [2]; [9])
SPKFMCSLSCWW	0.732 ± 0.011	0.714 ± 0.026	0.77647 ± 0.00063	0.685 ± 0.071	0.7527 ± 0.006	0.6577 ± 0.0042	0.665 ± 0.014	0.744 ± 0.021
SPLLLIIFRSLC	0.18 ± 0.038	0.505 ± 0.096	0.558 ± 0.0093	0.436 ± 0.039	0.623 ± 0.025	0.107 ± 0.0011	0.119 ± 0.0077	0.183 ± 0.019
SREPPTSTSSRH	0.519 ± 0.13	0.6388 ± 0.0031	0.709 ± 0.032	0.685 ± 0.012	0.669 ± 0.016	0.696 ± 0.025	0.703 ± 0.011	0.679 ± 0.0072
SRFPARCLLCCW	0.501 ± 0.031	0.531 ± 0.029	0.52 ± 0.021	0.454 ± 0.036	0.583 ± 0.017	0.4309 ± 0.002	0.449 ± 0.018	0.546 ± 0.007
SRMIPSAFLLVI	0.442 ± 0.01	0.589 ± 0.016	0.64 ± 0.012	0.507 ± 0.016	0.627 ± 0.012	0.348 ± 0.012	0.371 ± 0.02	0.513 ± 0.011
SSAQKVMELQIV	0.404 ± 0.011	0.664 ± 0.011	0.7179 ± 0.0062	0.648 ± 0.018	0.7361 ± 0.0023	0.223 ± 0.0048	0.257 ± 0.042	0.467 ± 0.035
SSLGILHWRLHS	0.224 ± 0.0078	0.587 ± 0.038	0.709 ± 0.019	0.646 ± 0.011	0.7347 ± 0.0067	0.122 ± 0.022	0.14 ± 0.017	0.259 ± 0.027
SVAWFIYVARSI	0.471 ± 0.038	0.529 ± 0.023	0.543 ± 0.072	0.482 ± 0.017	0.611 ± 0.011	0.282 ± 0.0042	0.329 ± 0.011	0.5224 ± 0.0022
SVCCSLLAVASP	0.3666 ± 0.0026	0.311 ± 0.035	0.355 ± 0.016	0.364 ± 0.022	0.323 ± 0.016	0.392 ± 0.029	0.384 ± 0.027	0.29 ± 0.0066
SVFFALFLRCTP	0.359 ± 0.05	0.26 ± 0.058	0.229 ± 0.055	0.34 ± 0.031	0.442 ± 0.005	0.43 ± 0.026	0.323 ± 0.024	0.405 ± 0.02
SVGVVWVLSVEG	0.454 ± 0.0074	0.444 ± 0.042	0.517 ± 0.015	0.33 ± 0.031	0.5415 ± 0.0018	0.308 ± 0.0081	0.343 ± 0.018	0.503 ± 0.0036
SVTFVVYFISGG	0.513 ± 0.039	0.522 ± 0.025	0.608 ± 0.023	0.409 ± 0.022	0.578 ± 0.028	0.426 ± 0.048	0.421 ± 0.022	0.548 ± 0.0076
SWAILFVLEGFK	0.477 ± 0.067	0.4673 ± 0.0029	0.548 ± 0.058	0.37 ± 0.021	0.561 ± 0.0092	0.318 ± 0.019	0.366 ± 0.011	0.5837 ± 0.004
SWLLLVFPLSVC	0.191 ± 0.016	0.0423 ± 0.012	0.0634 ± 0.005	0.167 ± 0.03	0.231 ± 0.0058	0.0982 ± 0.0044	0.0994 ± 0.021	0.113 ± 0.0063
TCFVKLLPFLVL	0.546 ± 0.067	0.549 ± 0.052	0.562 ± 0.011	0.456 ± 0.02	0.608 ± 0.024	0.4425 ± 0.0032	0.442 ± 0.013	0.5482 ± 0.0021
TCRASLRRIVVA	0.358 ± 0.034	0.514 ± 0.024	0.538 ± 0.03	0.381 ± 0.031	0.5813 ± 0.0056	0.222 ± 0.01	0.255 ± 0.042	0.459 ± 0.015
TFRVLREIILTA	0.249 ± 0.0078	0.2 ± 0.021	0.228 ± 0.021	0.206 ± 0.029	0.33 ± 0.023	0.151 ± 0.011	0.178 ± 0.024	0.277 ± 0.0079

Sequence	protein stability index (Saccharomyces cerevisiae [1])	protein stability index (Saccharomyces cerevisiae [2]; [3])	protein stability index (Saccharomyces cerevisiae [2]; [4])	protein stability index (Saccharomyces cerevisiae [2]; [5])	protein stability index (Saccharomyces cerevisiae [2]; [6])	protein stability index (Saccharomyces cerevisiae [2]; [7])	protein stability index (Saccharomyces cerevisiae [2]; [8])	protein stability index (Saccharomyces cerevisiae [2]; [9])
TPPFFDIFVVLL	0.46 ± 0.037	0.576 ± 0.052	0.652 ± 0.023	0.463 ± 0.027	0.6652 ± 0.0032	0.456 ± 0.021	0.48 ± 0.031	0.616 ± 0.043
TPPIRCRLVRFL	0.335 ± 0.029	0.656 ± 0.059	0.735 ± 0.017	0.626 ± 0.029	0.7526 ± 0.00097	0.2071 ± 0.0014	0.219 ± 0.018	0.496 ± 0.0056
TSARPFLYSFRP	0.00961 ± 0.014	0.69 ± 0.036	0.7386 ± 0.0065	0.654 ± 0.018	0.739 ± 0.0082	0.65 ± 0.016	0.642 ± 0.019	0.705 ± 0.027
TVLPCVLLFLRG	0.485 ± 0.013	0.61 ± 0.026	0.632 ± 0.012	0.508 ± 0.035	0.613 ± 0.0086	0.506 ± 0.022	0.484 ± 0.037	0.603 ± 0.03
VAVFFGCCVKVG	0.156 ± 0.026	0.149 ± 0.027	0.18 ± 0.02	0.191 ± 0.035	0.3258 ± 0.0018	0.0877 ± 0.0089	0.109 ± 0.024	0.141 ± 0.019
VAVGFVLGLCVV	0.447 ± 0.011	0.392 ± 0.042	0.418 ± 0.013	0.348 ± 0.03	0.4701 ± 0.0042	0.31 ± 0.012	0.35 ± 0.021	0.431 ± 0.012
VCFLLLLPALLI	0.432 ± 0.053	0.466 ± 0.031	0.465 ± 0.014	0.398 ± 0.026	0.516 ± 0.0089	0.422 ± 0.0094	0.393 ± 0.016	0.512 ± 0.027
VCNQVPGVIWFC	0.481 ± 0.022	0.683 ± 0.036	0.771 ± 0.017	0.654 ± 0.018	0.7556 ± 0.0068	0.373 ± 0.0045	0.412 ± 0.018	0.61183 ± 8.6e-05
VCRFLVSVFSCV	0.439 ± 0.019	0.546 ± 0.042	0.548 ± 0.02	0.453 ± 0.02	0.5763 ± 0.00065	0.38 ± 0.024	0.399 ± 0.025	0.5167 ± 0.0027
VCRVAAWLGWFV	0.175 ± 0.025	0.522 ± 0.016	0.708 ± 0.024	0.637 ± 0.019	0.7292 ± 0.00075	0.0897 ± 0.012	0.0909 ± 0.024	0.1636 ± 0.0013
VEFSLYVVFFLV	0.211 ± 0.0088	0.2152 ± 0.00048	0.344 ± 0.024	0.248 ± 0.029	0.437 ± 0.028	0.0993 ± 0.013	0.109 ± 0.018	0.154 ± 0.0063
VFCPRACWEFVG	0.222 ± 0.034	0.567 ± 0.041	0.737 ± 0.027	0.649 ± 0.021	0.7777 ± 0.0067	0.12 ± 0.0079	0.143 ± 0.0095	0.213 ± 0.0029
VFCSRSLISVVS	0.313 ± 0.027	0.193 ± 0.03	0.243 ± 0.072	0.208 ± 0.041	0.355 ± 0.007	0.165 ± 0.014	0.192 ± 0.03	0.303 ± 0.011
VFFCLCLCLFFV	0.368 ± 0.031	0.432 ± 0.023	0.463 ± 0.012	0.341 ± 0.018	0.473 ± 0.028	0.299 ± 0.0062	0.314 ± 0.022	0.45 ± 0.036
VFFGCIWSIVYN	0.2962 ± 0.0012	0.247 ± 0.022	0.302 ± 0.12	0.213 ± 0.035	0.41 ± 0.018	0.181 ± 0.014	0.229 ± 0.042	0.377 ± 0.011
VFGARLFLIRLV	0.223 ± 0.0077	0.405 ± 0.059	0.519 ± 0.069	0.534 ± 0.033	0.635 ± 0.023	0.155 ± 0.027	0.14 ± 0.041	0.1767 ± 0.00049
